Measured values as given in the DeepSol protein solubility set.

Assay: soluble on expression in E. coli; label from the status in PepcDB or PDB records

Row | Sequence | soluble on expression in E. coli
1 | SFQEQTTKSRDVNSFQIPLRDGVRELLPEDASRNRASIKSPVDIWIGGENMTALNGIVDGGRKFEAGQEFQINTFGSVNYWVSDEEIRVFKEYSARAKYAQNEGRTALEANNVPFFDIDVPPELDGVPFSLKARVRHKSKGVDGLGDYTSISVKPAFYITEGDETTDTLIKYTSYGSTGSHSGYDFDDNTLDVMVTLSAGVHRVFPVETELDYDAVQEVQHDWYDESFTTFIEVYSDDPLLTVKGYAQILMERT | soluble
2 | SGIGTGHTSMNKGGKDVTLLELSVEKRRWRINMETSKIILEKMQSDDVLDGNRERSNEREGRDSLSEKLKSKQNLKDEEKLRYIKTGKSIQVEGTVRAKALRWVQ | soluble
3 | SGSRDHLFKVLVVGDAAVGKTSLVQRYSQDSFSKHYKSTVGVDFALKVLQWSDYEIVRLQLWDIAGQERFTSMTRLYYRDASACVIMFDVTNATTFSNSQRWKQDLDSKLTLPNGEPVPCLLLANKCDLSPWAVSRDQIDRFSKENGFTGWTETSVKENKNINEAMRVLIEKMMRNSTEDIMSLSTQGDYINLQTKSSSWSCC | soluble
4 | SHMQSRELKTVSADCKKEAIEKCAQWVVRDCRPFSAVSGSGFIDMIKFFIKVKAEYGEHVNVEELLPSPITLSRKVTSDAKEKKALIGREIKSAVEKDGASATIDLWTDNYIKRNFLGVTLHYHENNELRDLILGLKSLDFERSTAENIYKKLKAIFSQFNVEDLSSIKFVTDRGANVVKSLANNIRINCSSHLLSNVLENSFEETPELNMPILACKNIVKYFKKANLQHRLRSSLKSECPTRWNSTYTMLRSILDNWESVIQILSEAGETQRIVHINKSIIQTMVNILDGFERIFKELQTCSSPSLCFVVPSILKVKEICSPDVGDVADIAKLKVNIIKNVRIIWEENLSIWHYTAFFFYPPALHMQQEKVAQIKEFCLSKMEDLELINRMSSFNELSATQLNQSDSNSHNSIDLTSHSKDISTTSFFFPQLTQNNSREPPVCPSDEFEFYRKEIVILSEDFKVMEWWNLNSKKYPKLSKLALSLLSIPASSAASERTFSLAGNIITEKRNRIGQQTVDSLLFLNSFYKNFCK | soluble
5 | SILELAEYTYFPPTLMASLILKNCDFSRKSINWLFKHLDCIENRRLRKEVRKALNADYFFSPRAHEMQCRKGEMGEEIVRKWLDDREIAYCTEAEIRAKGDGKTPDFVLSNPIFIEDHMVSWIESKALFGDDFEHKHYAKKQFREYADIFGEGMVVYWYGFLEDLSSEDEGYLIKDYRFFEGYQEQTDEL | soluble
6 | SISTHESQKLREYYRLLNLDEGCSVDDVRESFHKLARQYHPDSGSSDADSATFIKIEEAYRNVLSHAIKRMHAGQDKAEDAAEDEEEGKFKYNTPQHRHYLSFEGVGFGTPSQREKQYRQFRADRATEQVMEYQRQKLQREFFANSITVKDVRQSKQQKITQAIERLVEDLIQESMAKGDFDNLSGKGKPLKKFSGCSYIDPMTHNLNRILIDNGYQPEWILMQKEIKDTIEQLREALLMSRKKLGNPLSPTEQKQWAQVCEQFQEKIRKLNKRINDFNLIVPILTRQKVHFDAQKEIIRVQEMYGAFVEANEVTEENQTDVSQGEESKTPRVKAGFLNWLNLWKSIKI | soluble
7 | SKDLSVSLQANFTYNKNKMVYVDEPEYPTIWKSETGKPYSRITGYIAEGLFKSQEEIDNSPAQNLGSTPKVGDIKYRDLNGDGIIDSDDQTMISKYGSTPRLQYGFGGTVNYKKFDFGVFFSGSALRSIMTNGIDPFQEGIAVGNRNVLKYIADNYWSEEKQNWDAKYPRLGLLATDVANNTVNSSYWLRNGSFLRLKNVEVGYKIPYGRIFVSAANLFTFSPFDLWDPELSSWNSYPMQKTVNVGIQLQF | not soluble
8 | SKQPDKQRKSQRRAPLHERHKQVRATLSADLREEYGQRNVRVNAGDTVEVLRGDFAGEEGEVINVDLDKAVIHVEDVTLEKTDGEEVPRPLDTSNVRVTDLDLEDEKREARLESEDDSA | soluble
9 | SLAQLDKNDPARGVLAAIAANASKIAEYDPRVRADEYDSVHQMRVATRELRSHLQTFEGILGGEDYLNLEKELKVLANILGRARDAEVVEERLSNLINTEVGDSIEEETKKELLEDLGAEYRREHERVVRALDNDRYTDLLQALENLLVDPPLITEVEEPEATEAPESAETTESTDVSEATEEADAEAESVEEATEQEESADAPESADLDALDEEYSPGSQAPVEEPKEPKKVDAALVLLEHLDKAHVKLVKLEKKARSQWDDLSIPMLEREENFHNLRKAAKKLRYSAEAVGKATTVETKKLYKACSGLQSVLGDYQDAITSRNELLRRAQVARRQGRDTFAYGILYQHEQTLSREYLTGYSDAFKSVEKAYAKLAEDTAKRSKKNKRK | soluble
